Laboratory results reported in US20240034757A1.

Experiments:
Experiment in all cases: yeast surface display FACS re-test
CXCL9_HUMAN (human) = CXCL9_HUMAN (human) (UniProt Q07325)
CXCL12_HUMAN (human) = CXCL12_HUMAN (human) (UniProt P48061)
CXCL10_HUMAN (human) = CXCL10_HUMAN (human) (UniProt P02778)
CXCL10_HUMAN (human), sequence (P02778 22-98 limits assumed): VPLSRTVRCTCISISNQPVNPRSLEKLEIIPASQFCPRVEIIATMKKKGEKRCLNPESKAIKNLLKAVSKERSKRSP

CXCL9_HUMAN (human), sequence (Q07325 23-125 limits assumed): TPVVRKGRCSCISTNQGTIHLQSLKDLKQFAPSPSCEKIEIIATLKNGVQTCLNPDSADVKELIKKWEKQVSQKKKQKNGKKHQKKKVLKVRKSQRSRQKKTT
CXCL12_HUMAN (human), sequence (P48061 22-89 limits assumed): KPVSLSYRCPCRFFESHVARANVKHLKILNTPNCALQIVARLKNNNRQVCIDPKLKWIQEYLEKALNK

Row | Substance | % cells over threshold fluorescence (CXCL9_HUMAN (human)) | % cells over threshold fluorescence (CXCL12_HUMAN (human)) | % cells over threshold fluorescence (CXCL10_HUMAN (human))
1 | P458_IXORI (from UniProt A0A0K8R7D4 25-90) | 37% | – | –
2 | P1074_IXORI (from UniProt A0A0K8RDH6 29-96) | 35% | – | –
3 | P1080_IXORI (from UniProt A0A090XBL6 20-118) | 49% | 53% | –
4 | P1086_IXORI (from UniProt A0A0K8RK34 29-94) | 54% | – | –
5 | P1095_IXORI (from UniProt A0A0K8RCE3 24-112) | – | 47% | –
6 | P1096_IXORI (from UniProt A0A0K8RKE4 24-114) | – | – | 50%
7 | P1100_IXORI (from UniProt A0A0K8R556 29-96) | 55% | – | –
8 | P1124_IXORI (from UniProt A0A0K8RG61 29-83) | 31% | – | –
9 | P1134_IXORI (from UniProt A0A0K8RAI0 32-135) | – | – | 66%
